# Experimental data as given in the supplement of paper PMC10126150.
# ± gives the standard deviation of the averaged measurements.
# Tested on: ATP
# Test: switch fluorescence ratio, 500 uM ATP over buffer (Cy3 cluster intensity, sum of 5 cycles each) (fold (ratio)); higher = stronger signal-on switching upon ATP binding; sequences stand for … in TCGTCGGCAGCGTCAGATGTGTATAAGAGACAGTTTTTTTTTTTTTTTTTTTTTTTTT…TC
# Details: aptamer strand: ATP DNA aptamer (quencher-CACCTGGGGGAGTATTGCGGAGGAAGG + anchor), 100 nM annealed; ATP concentration: 500 uM
# Procedure, shortened: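 Clusters with intensities outside 100-1000 RFU were excluded. The remaining Cy3-labelled switching-strand clusters on a modified Illumina MiSeq flow-cell had been annealed to 100 nM quencher-labelled ATP aptamer and imaged in selection buffer, then after 15 min with 500 uM ATP at 22 °C, for five cycles separated by NaOH stripping and re-annealing. The fluorescence ratio, averaged per switch-domain sequence, is each cluster's summed target-cycle Cy3 intensity over its summed buffer-cycle Cy3 intensity.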
# 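Note: ATP exposure 15 min at 22 °C before imaging.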
row,Sequence,switch fluorescence ratio
1,TTGGAAGGGG,1.13 ± 0.24
2,ATGATACAGG,1.08 ± 0.039
3,TGGGCTTAAG,1.02 ± 0.026
4,AGTGTGGATT,1.03 ± 0.015
5,ATAATCGGCA,1.01 ± 0.054
6,GATGGATAGT,0.992 ± 0.02
7,GCACTAGGGA,0.9908 ± 0.0062
8,TAAAAATGAC,1.07 ± 0.1
9,GAAGGGGTGT,1.01 ± 0.031
10,CGAACAGCGA,1.27 ± 0.015
11,ACATTTGACG,1.05 ± 0.017
12,CGTGTTCTGG,0.994 ± 0.031
13,CGTGAAGGCG,0.952 ± 0.024
14,GGGAAGAGGC,1.01 ± 0.038
15,GTTTTTGGAA,1.05 ± 0.013
16,AGTGGCCCCG,1 ± 0.011
17,GGCATAGGGG,1.01 ± 0.026
18,TTAAGCTCGC,0.986 ± 0.045
19,TCGGGGCCGG,0.964 ± 0.037
20,GGGAATGATC,1.01 ± 0.034
21,GGGTGGATTG,0.983 ± 0.039
22,TGATTCAGGG,1.028 ± 0.0081
23,GCAATATGCA,1.03 ± 0.05
24,TGGGGTTCGA,0.975 ± 0.024
25,TAATTGTTGT,1.003 ± 0.005

row,Sequence,switch fluorescence ratio
1,TTGGAAAAAT,1.05 ± 0.071
2,TTCAGCCCGG,0.986 ± 0.056
3,ATTATTTCCC,1.05 ± 0.082
4,GTGGTTTCTG,0.984 ± 0.1
5,ATGACTTGGG,0.96 ± 0.011
6,GTTTGGTTGG,1 ± 0.02
7,TTTATTGTAA,0.991 ± 0.031
8,TTTTTCGG,0.996 ± 0.025
9,GAGTGCCGGT,1.02 ± 0.023
10,CTGGTTTTAT,0.9823 ± 0.009
11,TAAAAATGCG,0.951 ± 0.065
12,TGCTATTTAC,1.1 ± 0.069
13,AAAAGAGTAT,1 ± 0.016
14,TATAGGATGG,0.98 ± 0.028
15,TTAGTCACGC,1.029 ± 0.0092
16,GAGGGTAAGA,1.02 ± 0.062
17,TCAGGGTGAA,1.02 ± 0.041
18,AGAATGGGTT,1.03 ± 0.029
19,CATAAGTGGG,0.973 ± 0.03
20,GTTGAGTAGG,0.994 ± 0.012
21,TTGGTAAGAC,1.14 ± 0.12
22,TTGTGCATTT,1.01 ± 0.011
23,GGGTGGTCTG,1.01 ± 0.031
24,ACCGTTGTTC,1.04 ± 0.02
25,TACTGTATTG,1.03 ± 0.13

row,Sequence,switch fluorescence ratio
1,CGTAGACTCG,1.02 ± 0.05
2,GGAAGAATAG,1.02 ± 0.038
3,AGGTTGCCGG,1.04 ± 0.046
4,TAGGGTGCTA,1 ± 0.019
5,CTAATTGAGT,1.01 ± 0.014
6,CGGAGGGGAG,0.977 ± 0.011
7,GGGGTCGGCT,0.974 ± 0.077
8,CTGGGGCCTA,0.982 ± 0.023
9,AGAAGGTGGG,1.01 ± 0.021
10,GTAATTAATT,0.978 ± 0.025
11,GGATCGTGGG,0.995 ± 0.03
12,AGCCATTTGT,1.015 ± 0.0063
13,AGGCGGTTTG,0.985 ± 0.034
14,ATGTCCTATG,1.003 ± 0.0066
15,GAGCCATTTT,0.991 ± 0.041
16,AGTTGGGGAC,1.012 ± 0.0071
17,TCATCGTCT,1.01 ± 0.023
18,GCTGGGGGCG,0.987 ± 0.025
19,GTCACGGGCG,1.006 ± 0.0091
20,TGCAGATTTC,0.9978 ± 0.0088
21,ACTAAACGAG,1.062 ± 0.0078
22,ATAAGTGTGT,0.958 ± 0.047
23,TTCCTAGGGA,0.994 ± 0.046
24,TTGGAATTCC,0.989 ± 0.05
25,CACCAGTGCT,1.621 ± 0.0094

row,Sequence,switch fluorescence ratio
1,GGGTTTTCTT,0.961 ± 0.031
2,AGTAGCTCTC,1.02 ± 0.013
3,CCATTTTGTT,0.984 ± 0.015
4,TGGGGCCCCG,1 ± 0.013
5,TAGTTGAAGG,0.9942 ± 0.0051
6,TATTCTCATT,0.977 ± 0.023
7,GTTAAAAACA,1.03 ± 0.052
8,AACCTGTCGC,1.3964 ± 0.0013
9,TTTATCCGCC,1.77 ± 0.21
10,CCGTGCGAAA,2.99 ± 0.59
11,AAGATGGGGA,1.01 ± 0.016
12,TACTCGGGGT,1.004 ± 0.0064
13,CGTCATGCTC,1.19 ± 0.036
14,GATGAGTGTG,0.964 ± 0.041
15,TGGACTTGGT,0.97 ± 0.017
16,CCTGTTGCGA,2.66 ± 0.52
17,TTTGGTCTTT,1 ± 0.02
18,TTAGAAATAT,1.01 ± 0.016
19,CACGAATGCT,1.04 ± 0.019
20,ATTTCGTGGT,0.9759 ± 0.0096
21,AAATTGATAT,1.02 ± 0.025
22,TTCTTGGGGT,0.975 ± 0.056
23,GGGAATTGGT,0.979 ± 0.02
24,TTTTACAGTA,1.07 ± 0.022
25,AGCATGGCTG,1.01 ± 0.001
